# Measured values from US20240117018A1.
# What was measured:
# Experiment in all cases: cell-based or functional assay
# [1] = target: HIV-1 Env of pseudovirus 3301.v1.c24 (HIV-1)
# [2] = target: HIV-1 Env of pseudovirus T255-34 (HIV-1)
# [3] = target: HIV-1 Env of pseudovirus R1166.c01 (HIV-1)
# [4] = target: HIV-1 Env of pseudovirus C4118.c09 (HIV-1)
# [5] = target: HIV-1 Env of pseudovirus BJOX010000.06.2 (HIV-1)
# [6] = target: HIV-1 Env of pseudovirus 6540.v4.c1 (HIV-1)
# [7] = target: HIV-1 Env of pseudovirus X1193_c1 (HIV-1)
# [8] = target: HIV-1 Env of pseudovirus 235-47 (HIV-1)
# [9] = target: HIV-1 Env of pseudovirus BJOX025000.01.1 (HIV-1)
# [10] = target: HIV-1 Env of pseudovirus 620345.c01 (HIV-1)
# [11] = target: HIV-1 Env of pseudovirus 211-9 (HIV-1)
# [12] = target: HIV-1 Env of pseudovirus X1632_S2_B10 (HIV-1)
# [13] = target: HIV-1 Env of pseudovirus BJOX028000.10.3 (HIV-1)
# [14] = target: HIV-1 Env of pseudovirus 3817.v2.c59 (HIV-1)
# [15] = target: HIV-1 Env of pseudovirus BJOX015000.11.5 (HIV-1)
# [16] = target: HIV-1 Env of pseudovirus 3016.v5.c45 (HIV-1)
# [17] = target: HIV-1 Env of pseudovirus 6545.v4.c1 (HIV-1)
# [18] = target: HIV-1 Env of pseudovirus P0402_c2_11 (HIV-1)
# [19] = target: HIV-1 Env of pseudovirus T251-18 (HIV-1)
# [20] = target: HIV-1 Env of pseudovirus 89-F1_2_25 (HIV-1)
# [21] = target: HIV-1 Env of pseudovirus 0815.v3.c3 (HIV-1)
# [22] = target: HIV-1 Env of pseudovirus 6811.v7.c18 (HIV-1)
# [23] = target: HIV-1 Env of pseudovirus R3265.c06 (HIV-1)
# [24] = target: HIV-1 Env of pseudovirus C1080.c03 (HIV-1)
# [25] = target: HIV-1 Env of pseudovirus X2131_C1_B5 (HIV-1)
# [26] = target: HIV-1 Env of pseudovirus 6480.v4.c25 (HIV-1)
# [27] = target: HIV-1 Env of pseudovirus P1981_C5_3 (HIV-1)
# [28] = target: HIV-1 Env of pseudovirus 231966.c02 (HIV-1)
# [29] = target: HIV-1 Env of pseudovirus R2184.c04 (HIV-1)
# [30] = target: HIV-1 Env of pseudovirus A07412M1.vrc12 (HIV-1)
# [31] = target: HIV-1 Env of pseudovirus X1254_c3 (HIV-1)
substance,measurement,setting,value
PG9 (antibody),IC50 neutralization (TZM.bl),[1],0.216 µg/mL
same,IC80 neutralization (TZM.bl),[1],0.756 µg/mL
same,IC50 neutralization (TZM.bl),[2],0.023 µg/mL
same,IC80 neutralization (TZM.bl),[2],0.134 µg/mL
same,IC50 neutralization (TZM.bl),[3],0.736 µg/mL
same,IC80 neutralization (TZM.bl),[3],2.88 µg/mL
same,IC50 neutralization (TZM.bl),[4],0.068 µg/mL
same,IC80 neutralization (TZM.bl),[4],0.2 µg/mL
same,IC50 neutralization (TZM.bl),[5],0.154 µg/mL
same,IC80 neutralization (TZM.bl),[5],0.74 µg/mL
same,IC50 neutralization (TZM.bl),[6],0.07 µg/mL
same,IC80 neutralization (TZM.bl),[6],0.253 µg/mL
same,IC50 neutralization (TZM.bl),[7],0.105 µg/mL
same,IC80 neutralization (TZM.bl),[7],0.304 µg/mL
same,IC50 neutralization (TZM.bl),[8],0.233 µg/mL
same,IC80 neutralization (TZM.bl),[8],1.2 µg/mL
same,IC50 neutralization (TZM.bl),[9],0.144 µg/mL
same,IC80 neutralization (TZM.bl),[9],0.335 µg/mL
same,IC50 neutralization (TZM.bl),[10],1.33 µg/mL
same,IC80 neutralization (TZM.bl),[10],> 50 µg/mL
same,IC50 neutralization (TZM.bl),[11],0.049 µg/mL
same,IC80 neutralization (TZM.bl),[11],0.243 µg/mL
same,IC50 neutralization (TZM.bl),[12],0.107 µg/mL
same,IC80 neutralization (TZM.bl),[12],0.934 µg/mL
same,IC50 neutralization (TZM.bl),[13],1.1 µg/mL
same,IC80 neutralization (TZM.bl),[13],21.5 µg/mL
same,IC50 neutralization (TZM.bl),[14],0.02 µg/mL
same,IC80 neutralization (TZM.bl),[14],0.062 µg/mL
same,IC50 neutralization (TZM.bl),[15],0.322 µg/mL
same,IC80 neutralization (TZM.bl),[15],1.49 µg/mL
same,IC50 neutralization (TZM.bl),[16],2.46 µg/mL
same,IC80 neutralization (TZM.bl),[16],> 50 µg/mL
same,IC50 neutralization (TZM.bl),[17],0.099 µg/mL
same,IC80 neutralization (TZM.bl),[17],0.351 µg/mL
same,IC50 neutralization (TZM.bl),[18],0.296 µg/mL
same,IC80 neutralization (TZM.bl),[18],2.37 µg/mL
same,IC50 neutralization (TZM.bl),[19],> 50 µg/mL
same,IC80 neutralization (TZM.bl),[19],> 50 µg/mL
same,IC50 neutralization (TZM.bl),[20],0.668 µg/mL
same,IC80 neutralization (TZM.bl),[20],10.1 µg/mL
same,IC50 neutralization (TZM.bl),[21],> 50 µg/mL
same,IC80 neutralization (TZM.bl),[21],> 50 µg/mL
same,IC50 neutralization (TZM.bl),[22],> 50 µg/mL
same,IC80 neutralization (TZM.bl),[22],> 50 µg/mL
same,IC50 neutralization (TZM.bl),[23],0.163 µg/mL
same,IC80 neutralization (TZM.bl),[23],0.535 µg/mL
same,IC50 neutralization (TZM.bl),[24],0.004 µg/mL
same,IC80 neutralization (TZM.bl),[24],0.013 µg/mL
same,IC50 neutralization (TZM.bl),[25],0.084 µg/mL
same,IC80 neutralization (TZM.bl),[25],0.286 µg/mL
same,IC50 neutralization (TZM.bl),[26],> 50 µg/mL
same,IC80 neutralization (TZM.bl),[26],> 50 µg/mL
same,IC50 neutralization (TZM.bl),[27],0.258 µg/mL
same,IC80 neutralization (TZM.bl),[27],2.51 µg/mL
same,IC50 neutralization (TZM.bl),[28],0.075 µg/mL
same,IC80 neutralization (TZM.bl),[28],0.257 µg/mL
same,IC50 neutralization (TZM.bl),[29],0.255 µg/mL
same,IC80 neutralization (TZM.bl),[29],1.24 µg/mL
same,IC50 neutralization (TZM.bl),[30],0.697 µg/mL
same,IC80 neutralization (TZM.bl),[30],7.96 µg/mL
same,IC50 neutralization (TZM.bl),[31],0.065 µg/mL
same,IC80 neutralization (TZM.bl),[31],0.304 µg/mL
PG16 (antibody),IC50 neutralization (TZM.bl),[1],0.02 µg/mL
same,IC80 neutralization (TZM.bl),[1],0.087 µg/mL
same,IC50 neutralization (TZM.bl),[2],0.024 µg/mL
same,IC80 neutralization (TZM.bl),[2],0.125 µg/mL
same,IC50 neutralization (TZM.bl),[3],0.28 µg/mL
same,IC80 neutralization (TZM.bl),[3],4.38 µg/mL
same,IC50 neutralization (TZM.bl),[4],0.022 µg/mL
same,IC80 neutralization (TZM.bl),[4],0.143 µg/mL
same,IC50 neutralization (TZM.bl),[5],1.2 µg/mL
same,IC80 neutralization (TZM.bl),[5],> 50 µg/mL
same,IC50 neutralization (TZM.bl),[6],0.035 µg/mL
same,IC80 neutralization (TZM.bl),[6],0.42 µg/mL
same,IC50 neutralization (TZM.bl),[7],0.018 µg/mL
same,IC80 neutralization (TZM.bl),[7],0.11 µg/mL
same,IC50 neutralization (TZM.bl),[8],0.092 µg/mL
same,IC80 neutralization (TZM.bl),[8],4.51 µg/mL
same,IC50 neutralization (TZM.bl),[9],0.071 µg/mL
same,IC80 neutralization (TZM.bl),[9],> 50 µg/mL
same,IC50 neutralization (TZM.bl),[10],> 50 µg/mL
same,IC80 neutralization (TZM.bl),[10],> 50 µg/mL
same,IC50 neutralization (TZM.bl),[11],0.029 µg/mL
same,IC80 neutralization (TZM.bl),[11],0.144 µg/mL
same,IC50 neutralization (TZM.bl),[12],0.012 µg/mL
same,IC80 neutralization (TZM.bl),[12],0.076 µg/mL
same,IC50 neutralization (TZM.bl),[13],> 50 µg/mL
same,IC80 neutralization (TZM.bl),[13],> 50 µg/mL
same,IC50 neutralization (TZM.bl),[14],0.008 µg/mL
same,IC80 neutralization (TZM.bl),[14],0.06 µg/mL
same,IC50 neutralization (TZM.bl),[15],3.13 µg/mL
same,IC80 neutralization (TZM.bl),[15],> 50 µg/mL
same,IC50 neutralization (TZM.bl),[16],> 50 µg/mL
same,IC80 neutralization (TZM.bl),[16],> 50 µg/mL
same,IC50 neutralization (TZM.bl),[17],0.044 µg/mL
same,IC80 neutralization (TZM.bl),[17],1.56 µg/mL
same,IC50 neutralization (TZM.bl),[18],0.025 µg/mL
same,IC80 neutralization (TZM.bl),[18],0.411 µg/mL
same,IC50 neutralization (TZM.bl),[19],1.72 µg/mL
same,IC80 neutralization (TZM.bl),[19],44.7 µg/mL
same,IC50 neutralization (TZM.bl),[20],47.6 µg/mL
same,IC80 neutralization (TZM.bl),[20],> 50 µg/mL
same,IC50 neutralization (TZM.bl),[21],> 50 µg/mL
same,IC80 neutralization (TZM.bl),[21],> 50 µg/mL
same,IC50 neutralization (TZM.bl),[22],> 50 µg/mL
same,IC80 neutralization (TZM.bl),[22],> 50 µg/mL
same,IC50 neutralization (TZM.bl),[23],0.016 µg/mL
same,IC80 neutralization (TZM.bl),[23],0.146 µg/mL
same,IC50 neutralization (TZM.bl),[24],0.001 µg/mL
same,IC80 neutralization (TZM.bl),[24],0.003 µg/mL
same,IC50 neutralization (TZM.bl),[25],0.024 µg/mL
same,IC80 neutralization (TZM.bl),[25],0.139 µg/mL
same,IC50 neutralization (TZM.bl),[26],> 50 µg/mL
same,IC80 neutralization (TZM.bl),[26],> 50 µg/mL
same,IC50 neutralization (TZM.bl),[27],0.376 µg/mL
same,IC80 neutralization (TZM.bl),[27],> 50 µg/mL
same,IC50 neutralization (TZM.bl),[28],0.007 µg/mL
same,IC80 neutralization (TZM.bl),[28],0.031 µg/mL
same,IC50 neutralization (TZM.bl),[29],0.67 µg/mL
same,IC80 neutralization (TZM.bl),[29],> 50 µg/mL
same,IC50 neutralization (TZM.bl),[30],0.343 µg/mL
same,IC80 neutralization (TZM.bl),[30],> 50 µg/mL
same,IC50 neutralization (TZM.bl),[31],0.023 µg/mL
same,IC80 neutralization (TZM.bl),[31],0.218 µg/mL
